Experimental findings from IntAct's records for PubMed 16582879 are described below.

B1: Tyrosine-protein phosphatase non-receptor type 1 (Homo sapiens), P18031 (parent)
chain: MEMEKEFEQIDKSGSWAAIYQDIRHEASDFPCRVAKLPKNKNRNRYRDVSPFDHSRIKLHQEDNDYINASLIKMEEAQRSYILTQGPLPNTCGHFWEMVWEQKSRGVVMLNRVMEKGSLKCAQYWPQKEEKEMIFEDTNLKLTLISEDIKSYYTVRQLELENLTTQETREILHFHYTTWPDFGVPESPASFLNFLFKVRESGSLSPEHGPVVVHCSAGIGRSGTFCLADTCLLLMDKRKDPSSVDIKKVLLEMRKFRMGLIQTADQLRFSYLAVIEGAKFIMGDSSVQDQWKELSHEDLEPPPEHIPPPPRPPKRILEPHNGKCREFFPNHQWVKEETQEDKDCPIKEEKGSPLNAAPYGIESMSQDTEVRSRVVGGSLRGAQAASPAKGEPSLPEKDEDHALSYWKPFLVNMCVATVLTAGAYLCYRFLFNSNT

In this test the parent is B1. Conditions: with insr_human INSR.
As for D181A, the “effect of a mutation on the interaction” value is reported as “increasing interaction”.
